Reference: PMC5220320 (Scientific Reports, 2017)
Each block holds one molecule with its values, some of them ahead of it.

What was measured:
[1] = target: T1, NDH-2 (type II NADH:quinone oxidoreductase) (Caldalkalibacillus thermarum, UniProt F5L3B8, G164E); experiment: steady-state kinetics (KM); compromised binding, no CTC; type: biochemical
T1 construct: gene CathTA2_0279
T1 sequence (F5L3B8 1-399 G164E): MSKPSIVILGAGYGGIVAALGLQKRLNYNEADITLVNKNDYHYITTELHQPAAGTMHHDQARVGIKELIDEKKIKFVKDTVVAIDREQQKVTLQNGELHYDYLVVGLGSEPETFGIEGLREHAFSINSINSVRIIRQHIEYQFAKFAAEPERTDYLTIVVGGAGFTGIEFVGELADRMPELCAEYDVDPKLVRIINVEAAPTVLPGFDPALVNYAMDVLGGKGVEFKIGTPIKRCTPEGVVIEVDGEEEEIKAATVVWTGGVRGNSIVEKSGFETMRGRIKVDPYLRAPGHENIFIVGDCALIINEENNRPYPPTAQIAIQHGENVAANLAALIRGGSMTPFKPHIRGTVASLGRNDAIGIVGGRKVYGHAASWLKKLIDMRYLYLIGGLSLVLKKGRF

[2] = target: T2, NDH-2 (type II NADH:quinone oxidoreductase) (Caldalkalibacillus thermarum, UniProt F5L3B8, I379E); experiment: CTC formation by absorbance and stopped-flow flavin reduction; type: binding
T2 construct: gene CathTA2_0279
T2 sequence (F5L3B8 1-399 I379E): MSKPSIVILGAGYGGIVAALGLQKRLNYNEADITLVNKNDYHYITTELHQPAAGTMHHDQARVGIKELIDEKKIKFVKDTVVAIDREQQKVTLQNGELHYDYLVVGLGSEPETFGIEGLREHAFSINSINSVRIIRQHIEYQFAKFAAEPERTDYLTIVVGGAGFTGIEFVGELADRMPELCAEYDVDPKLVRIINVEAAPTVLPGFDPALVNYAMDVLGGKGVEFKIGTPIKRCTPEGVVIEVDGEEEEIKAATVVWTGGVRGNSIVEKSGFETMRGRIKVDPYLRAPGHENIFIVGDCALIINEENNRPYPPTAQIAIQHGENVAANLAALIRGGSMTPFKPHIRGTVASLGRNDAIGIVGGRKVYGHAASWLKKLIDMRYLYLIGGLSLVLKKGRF

CC1=CC(=O)c2ccccc2C1=O = experiment: steady-state kinetics (KM); compromised binding; type: biochemical, Caldalkalibacillus thermarum; conditions: FAD quinone-binding site; clashes with the side chain of E379
[3] = target: T3, NDH-2 (type II NADH:quinone oxidoreductase) (Caldalkalibacillus thermarum, UniProt F5L3B8); experiment: spectroscopic titration of reduced enzyme (CTC), upper limit for KD; co-crystal structure at […] Å; type: binding
T3 construct: gene CathTA2_0279
T3 sequence (F5L3B8 1-399): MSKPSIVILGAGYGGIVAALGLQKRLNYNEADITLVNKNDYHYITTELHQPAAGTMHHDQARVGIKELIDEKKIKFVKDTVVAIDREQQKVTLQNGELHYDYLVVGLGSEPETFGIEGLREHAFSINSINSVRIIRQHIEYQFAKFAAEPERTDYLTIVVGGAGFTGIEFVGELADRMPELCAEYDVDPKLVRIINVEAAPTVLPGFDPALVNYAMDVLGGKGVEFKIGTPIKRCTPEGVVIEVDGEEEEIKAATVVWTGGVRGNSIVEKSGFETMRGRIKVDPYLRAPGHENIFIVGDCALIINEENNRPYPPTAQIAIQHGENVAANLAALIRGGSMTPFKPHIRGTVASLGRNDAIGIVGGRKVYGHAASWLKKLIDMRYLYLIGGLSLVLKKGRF

purified protein [4] = substrate: CC(=O)c1ccc[n+]([C@@H]2O[C@H](COP(=O)([O-])OP(=O)(O)OC[C@H]3O[C@@H](n4cnc5c(N)ncnc54)[C@H](O)[C@@H]3O)[C@@H](O)[C@H]2O)c1; experiment: purified protein; conditions: FAD competes with NAD+ for the reduced flavin
purified protein [5] = substrate: NC(=O)C1=CN([C@@H]2O[C@H](COP(=O)(O)OP(=O)(O)OC[C@H]3O[C@@H](n4cnc5c(N)ncnc54)[C@H](O)[C@@H]3O)[C@@H](O)[C@H]2O)C=CC1; experiment: purified protein; conditions: FAD nucleotide-binding site, nicotinamide ring juxtaposed over the flavin; E198 hydrogen bonds to the adenine ribose; F165 moves
[6] = substrate: CC1=CC(=O)c2ccccc2C1=O; experiment: steady-state kinetics (KM) and stopped-flow flavin reoxidation; type: biochemical, Caldalkalibacillus thermarum; conditions: FAD quinone-binding site on the opposite face of the flavin to the nucleotide-binding site; I379 at the entry

Molecule: NC(=O)C1=CN([C@@H]2O[C@H](COP(=O)(O)OP(=O)(O)OC[C@H]3O[C@@H](n4cnc5c(N)ncnc54)[C@H](O)[C@@H]3O)[C@@H](O)[C@H]2O)C=CC1 [NADH]
Km [1]: > 1000 µM
CTC formation by absorbance and stopped-flow flavin reduction [2]: When oxidized I379E reacts with NADH, the flavin is reduced and a CTC forms, as in the WT enzyme

Molecule: NDH-2 (type II NADH:quinone oxidoreductase) (Caldalkalibacillus thermarum TA2.A1; I379E)
Km (CC1=CC(=O)c2ccccc2C1=O): 780 µM

Kd [3]: < 2000 nM
Molecule: NC(=O)c1ccc[n+]([C@@H]2O[C@H](COP(=O)([O-])OP(=O)(O)OC[C@H]3O[C@@H](n4cnc5c(N)ncnc54)[C@H](O)[C@@H]3O)[C@@H](O)[C@H]2O)c1 [NAD^+]

B1: NDH-2 (type II NADH:quinone oxidoreductase) (Caldalkalibacillus thermarum TA2.A1) (protein)
chain: MSKPSIVILGAGYGGIVAALGLQKRLNYNEADITLVNKNDYHYITTELHQPAAGTMHHDQARVGIKELIDEKKIKFVKDTVVAIDREQQKVTLQNGELHYDYLVVGLGSEPETFGIEGLREHAFSINSINSVRIIRQHIEYQFAKFAAEPERTDYLTIVVGGAGFTGIEFVGELADRMPELCAEYDVDPKLVRIINVEAAPTVLPGFDPALVNYAMDVLGGKGVEFKIGTPIKRCTPEGVVIEVDGEEEEIKAATVVWTGGVRGNSIVEKSGFETMRGRIKVDPYLRAPGHENIFIVGDCALIINEENNRPYPPTAQIAIQHGENVAANLAALIRGGSMTPFKPHIRGTVASLGRNDAIGIVGGRKVYGHAASWLKKLIDMRYLYLIGGLSLVLKKGRF
Km (purified protein [4]): 7.2 µM
Km (purified protein [5]): 29 µM
Km [6]: 34 µM
